Test: soluble on expression in E. coli; label from the status in PepcDB or PDB records

| Sequence | soluble on expression in E. coli |
| --- | --- |
| SYMERMDKRALISFWESVEHLKNANKNEIPQLVGEIYQNFFVESKEISVEKSLYKEIQQCLVGNKGIEVFYKIQEDVYETLKDRYYPSFIVSDLYEKLLIKEEEKHASQMISNKDEMGPRDEAGEEAVDDGTNQINEQASFAVNKLRELNEKLEYKRQALNSIQNAPKPDKKIVSKLKDEIILIEKERTDLQLHMARTDWWCENLGMWKASITSGEVTEENGEQLPCYFVMVSLQEVGGVETKNWTVPRRLSEFQNLHRKLSECVPSLKKVQLPSLSKLPFKSIDQKFMEKSKNQLNKFLQEETEEDSDLSDYGDDVDGRKDALAEPCFMLIGEIFELRGMFKWVRRTLIALVQVTFGRTINKQIRDTVSWIFSEQMLVYYINIFRDAFWPNGKLAPPTTIRSKEQSQETKQRAQQKLLENIPDMLQSLVGQQNARHGIIKIFNALQETRANKHLLYALMELLLIELCPELRVHLDQLKAGQV | soluble |
| TAILVTTRDGTRTEIQAEPGLSLMEALRDAGIDELLALCGGCCSCATCHVLVAPAFADRLPALSGDENDLLDSSDHRTPHSRLSCQITINDKLEGLEVEIAPED | soluble |
| TCPAACHCPLEAPKCAPGVGLVRDGCGCCKVCAKQLNEDCSKTQPCDHTKGLECNFGASSTALKGICRAQSEGRPCEYNSRIYQNGESFQPNCKHQCTCIDGAVGCIPLCPQELSLPNLGCPNPRLVKVTGQCCEEWVCDEDSIKDPMEDQDGLLGKELGFDASEVELTRNNELIAVGKGSSLKRLPVFGMEPRILYNPLQGQKCIVQTTSWSQCSKTCGTGISTRVTNDNPECRLVKETRICEVRPCGQPVYSSLKKGKKCSKTKKSPEPVRFTYAGCLSVKKYRPKYCGSCVDGRCCTPQLTRTVKMRFRCEDGETFSKNVMMIQSCKCNYNCPHANEAAFPFYRLFNDIHKFRD | soluble |
| TDESRGKARAAGVESAVLLENKSRLLPLAKEAKIALVGPLATSPDILGGWNVYGEEKDGINVETGLREVFETVEVVSTEYTELSEEDKVAVKAAVQNMDVVVLALGEKNEWGGEAGSLATIRLPEAQYQLAKFVQTLGKPVVITLFNGRPLEVKELAESSDALLELWFPGTEAGRVTADLLSGASNPSGKLSMSFPQTTGQIPVYYNHLRTGRPQTPENKGERYVSHYLDIPNEPFYPFGYGKSYSEF | not soluble |
| TDGQLTKQHVRALAISALAPKPHETLWDIGGGSGSIAIEWLRSTPQTTAVCFEISEERRERILSNAINLGVSDRIAVQQGAPRAFDDVPDNPDVIFIGGGLTAPGVFAAAWKRLPVGGRLVANAVTVESEQMLWALRKQFGGTISSFAISHEHTVGSFITMKPALPVHQWTVVKALTKEL | soluble |
| TDNTKPNRMPVAPYWTSPEKMEKKLHAVPAAKTVKFKCPSSGTPQPTLRWLKNGKEFKPDHRIGGYKVRYATWSIIMDSVVPSDKGNYTCIVENEYGSINHTYQLDVVERSPHRPILQAGLPANKTVALGSNVEFMCKVYSDPQPHIQWLKHIEVNGSKIGPDNLPYVQILKTAGVNTTDKEMEVLHLRNVSFEDAGEYTCLAGNSIGLSHHSAWLTVLEALEER | soluble |
| TDPGAEELPARIFVALFDYDPLTMSPNPDAAEEELPFKEGQIIKVYGDKDADGFYRGETCARLGLIPCNMVSEIQADDEEMMDQ | soluble |
| TESPADSFLKVELELNLKLSNLVFQDPVQYVYNPLVYAWAPHENYVQTYCKSKKEVLFLGMNPGPFGMAQTGVPFGEVNHVRDWLQIEGPVSKPEVEHPKRRIRGFECPQSEVSGARFWSLFKSLCGQPETFFKHCFVHNHCPLIFMNHSGKNLTPTDLPKAQRDTLLEICDEALCQAVRVLGVKLVIGVGRFSEQRARKALMAEGIDVTVKGIMHPSPRNPQANKGWEGIVRGQLLELGVLSLLTG | soluble |
| TIPKWWKEAVFYQVYPRSFKDTNGDGIGDINGIIEKLDYLKALGIDAIWINPHYDSPNTDNGYDIRDYRKIMKEYGTMEDFDRLISEMKKRNMRLMIDVVINHTSDQNEWFVKSKSSKDNPYRGYYFWKDAKEGQAPNNYPSFFGGSAWQKDEKTNQYYLHYFAKQQPDLNWDNPKVRQDLYAMLRFWLDKGVSGLRFDTVATYSKIPDFPNLTQQQLKNFAAEYTKGPNIHRYVNEMNKEVLSHYDIATAGEIFGVPLDQSIKFFDRRRDELNIAFTFDLIRLDRDSDQRWRRKDWKLSQFRQIIDNVDRTAGEYGWNAFFLDNHDNPRAVSHFGDDRPQWREPSAKALATLTLTQRATPFIYQGSELGMTNYPFKAIDEFDDIEVKGFWHDYVETGKVKADEFLQNVRLTSRDNSRTPFQWDGSKNAGFTSGKPWFKVNPNYQEINAVSQVTQPDSVFNYYRQLIKIRHDIPALTYGTYTDLDPANDSVYAYTRSLGAEKYLVVVNFKEQMMRYKLPDNLSIEKVIIDSNSKNVVKKNDSLLELKPWQSGVYKLNQ | soluble |
| TLTDTMNDLAVRMAESFQAEEVGFFHIDHFENLTLLPGSTAFFKEAKPSDFYNELKEKLYEGEKGVFIGNGQSVFGKAGYGSLMAAPMIQNDRLLGFAVLLKQELYAFTFEMYKLFQALIHHATLAVTNSMLRDRLEHLVKTDQL | not soluble |
| TLTIDDGNIEIVGTGVKGKLPTVWLQYGQVNLKASGGNGKYTWRSANPAIASVDASSGQVTLKEKGTTTISVISSDNQTATYTIATPNSLIVPNMSKRVTYNDAVNTCKNFGGKLPSSQNELENVFKAWGAANKYEYYKSSQTIISWVQQTAQDAKSGVASTYDLVKQNPLNNIKASESNAYATCVK | soluble |
| TNDEETIQQQILALSADKRNFLRDPPAGVQFNFDFDQMYPVALVMLQEDELLSKMRFALVPKLVKEEVFWRNYFYRVSLIKQSAQLT | soluble |
| TPDFTWKTSLNFSANKNKIVELHEELKEFVYGPTSFSSSYAMKLVKGGSIGDIYGKAFIRDEAGSIVYGTDGDYKGLPLVEGDGNTVKVGNANPDFMLGWNHSFSYKGFSLYFLLDWRYGGEVLSQTQAEMDLYGVSKATAQARDKGYVSLEGQQISDVKGFYKNVVGGRAGVTEYYMYDATNLRLREISLSYSFPRKWVQKTNCLKDLQLSFVARNLCFLYKKAPFDPDLVLSTGNDNQGIEVFGMPTTRSLGFTLTCEF | not soluble |
| TSSTIFSGVAIYVNGYTDPSAEELRKLMMLHGGQYHVYYSRSKTTHIIATNLPNAKIKELKGEKVIRPEWIVESIKAGRLLSYIPYQLYT | soluble |
| TTSLRAYRLGEHGQVLEQRALSAGIMQLPTTPRLISGQLCSDGFELAFDQACGDWLDAEPGLPVIACGMVGSAQGWREAAYRETPASVNQLSAALQTVRSQRGVTVHIIPGVLQRSTLPNVMRGEETQVLGVLAGLETQLDNQPLLIGLPGSHSKWVQVTRGRIVHFDTFMTGEVYAALCAHTILGRTMQPAEAFDDQAFDRGLSIALSDTGSAGPLSTIFSTRTLGLTGQLAASAQPDYLSGLLFGHELGAIARLHLHTHEQLPAVILIGSEALCARYSRGLTVCGFPQVTLAEQATERGLWQVAVQAGLIAR | not soluble |
| TVAEPKAINATQPLLLDAVRGKEVERPPVWLMRQAGRYMKSYQLLCEKYPLFRDRSENVDLVVEISLQPWKVFRPDGVILFSDILTPLSGMNIPFDIIKGKGPVIFDPLRTAADVEKVREFIPEKSVPYVGEALTILRKEVNNQAAVLGFVGAPFTLASYVVEGGSSKNFTKIKRLAFAEPKVLHALLQKFATSMAKYIRYQADSGAQAVQIFDSWATELSPVDFEEFSLPYLKQIVDSVKLTHPNLPLILYASGSGGLLERLPLTGVDVVSLDWTVDMADGRRRLGPNVAIQGNVDPGVLFGSKEFITNRINDTVKKAGKGKHILNLGHGIKVGTPEENFAHFFEIAKGLRY | soluble |
| TVKSFVMRAGRMTEGQQRGLDLGWPKFGLELSDEVQDFDAIFGRQAPRTFEIGFGMGHSTLEMAAAAPDIDFIGVEVHKPGVGALLNGLLTQGLGNVRVYSCDALEVLRHCVADASLDRLLLFFPDPWHKKRHHKRRIVQPEFAELVRRKLKVGGVLHMATDWEPYAEHMLDVMSAAPGYRNQAEDGRFVPRPQERPVTKFERRGERLGHGVWDLKFER | not soluble |
| TVNQAKIFAQTTKMLEFAKQLLETDDFSTLREAYYVSKNWGEARFDDQQASNNVIEDLEAALGVLREHLGFIPEEDGSSVVGPLKIIEETPEGELVVDCTKLGTGAYNIPNDVTKLNLETDADFILAIETSGMFARLNAERFWDKHNCILVSLKGVPARATRRFIKRLHEEHDLPVLVFTDGDPYGYLNIYRTLKVGSGKAIHLADKLSIPAARLIGVTPQDIIDYDLPTHPLKEQDIKRIKDGLKNDDFVRSFPEWQKALKQMLDMGVRAEQQSLAKYGLKYVVNTYLPEKIKDESTWLP | soluble |
| TYDGKVESVVLGFATEVPEPWVTEKLSITEEELVYKIIRLRIIEDVPSIIEYTWMPVALIPNLTMKELKVSIYQYISEQLHQKIQSARVSISGIRPSPLEKKYLNLTDNDFLMRAEQIAYLGNGHIFEYSIANHIPSEFTFETVLIAEK | not soluble |
| VAAALGVKPPETATTPEIVVGRPPELCKGCGHRDMFDAINIAIKENADHHVFSDIGCYTLGALPPYNAIHTCVDMGAAITMAKGAADAGLRPAVCVIGDSTFAHSGMTGLLDAVNDRTPVTVIIADNNTTAMTGGQCSSASGSKLVNICIGLGVEEAHIRTIVPLRQHLHENVSVLRDEFAYNGVSVVIAQRECIETAAKKKRRAAASAQ | not soluble |
| VAESKLVIGDRSFASRLIMGTGGATNLAVLEQALIASGTELTTVAIRRVDADGGTGLLDLLNRLGITPLPNTAGSRSAAEAVLTAQLAREALNTNWVKLEVIADERTLWPDAVELVRAAEQLVDDGFVVLPYTTDDPVLARRLEDTGCAAVMPLGSPIGTGLGIANPHNIEMIVAGARVPVVLDAGIGTASDAALAMELGCDAVLLASAVTRAADPPAMAAAMAAAVTAGYLARCAGRIPKRFWAQASSPAR | soluble |
| VAVRPVLAVGSYLPHAPWPWGVIDQAARVLLPASTTVRAAVSLPNASAQLVRASGVLPADGTRRAVLYLHGGAFLTCGANSHGRLVELLSKFADSPVLVVDYRLIPKHSIGMALDDCHDGYRWLRLLGYEPEQIVLAGDSAGGYLALALAQRLQEVGEEPAALVAISPLLQLAKEHKQAHPNIKTDAMFPARAFDALDALVASAAARNQVDGEPEELYEPLEHITPGLPRTLIHVSGSEVLLHDAQLAAAKLAAAGVPAEVRVWPGQVHDFQVAASMLPEAIRSLRQIGEYIREATG | not soluble |
| VDEIGELADSFNTLTKRVQEAQAMTEGERRKLSSVLAYMTDGVIATDRRGKVILINTPAEKMLRVKHESANGRSIIDVLDIGDTYQFEDLMEVDGSLTMDRSTLDKPYVLRANFSVIQRETG | not soluble |
| VDSVYRTRSLGVAAEGIPDQYADGEAARVWQLYIGDTRSRTAEYKAWLLGLLRQHGCHRVLDVACGTGVDSIMLVEEGFSVTSVDASDKMLKYALKERWNRRKEPAFDKWVIEEANWLTLDKDVPAGDGFDAVICLGNSFAHLPDSKGDQSEHRLALKNIASMVRPGGLLVIDHRNYDYILSTGCAPPGKNIYYKSDLTKDITTSVLTVNNKAHMVTLDYTVQVPGAGRDGAPGFSKFRLSYYPHCLASFTELVQEAFGGRCQHSVLGDFKPYRPGQAYVPCYFIHVLKKTG | soluble |
| VDVRAIMTPPAHQDGGKHDVDARGPCGLTPLMIAAVRGGGLDTGEDIENNEDSTAQVISDLLAQGAELNATMDKTGETSLHLAARFARADAAKRLLDAGADANCQDNTGRTPLHAAVAADAMGVFQILLRNRATNLNARMHDGTTPLILAARLAIEGMVEDLITADADINAADNSGKTALHWAAAVNNTEAVNILLMHHANRDAQDDKDETPLFLAAREGSYEACKALLDNFANREITDHMDRLPRDVASERLHHDIVRLLDEHVPRSPQMLSMTPQAMIGSPPPGQQQPQLITQPTVISAGNGGNNGNGNASGKQSNQT | soluble |

Source: the DeepSol protein solubility set
